Laboratory results published in the nanobody polyreactivity screen of Harvey et al. (2022).

Assay: yeast display, Sf9 membrane polyspecificity reagent, FACS + sequencing; frameworks hold sequencing errors
In short: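 A nanobody's polyreactivity label depends on the gate it was sorted from. Yeast display cells were stained with 10% biotinylated, detergent-solubilized Sf9 membrane reagent for 1 hour at 4 °C, enriched on streptavidin microbeads and sorted by FACS. The low and high (top ~1%) gates were set on anti-HA fluorescence for expression and streptavidin fluorescence for reagent binding.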

Sequence	polyreactivity (PSR sort gate)
QVQLVESGGGLVQAGGSLRLSCAASGFIFLLYDMGWYRQAPGKERELVAAISRSGGSTYYADSVKGRFTISRDNAKNTVYLQMNSLKPEDTAVYYCNAAYRPWRGGYYPVGYYYWGQGTQVTVSS	high polyreactivity
QVQLVESGGGLVQVGGSLRLSCAASGRTVWWYAMGWYRQAPGKERELVAAISRGSTNYADSVKGRFTISRDNAKNTVYLQMNSLKPEDTAVYYCNAVSLYQSHDYDYWGQGTQVTVSS	low polyreactivity
QVQLVESGGGLVQAGVSLRLSCAASGFTFYYYAMVRNRQAPGKERELVAAITGSGGGTYYADSVKGRFTISRDYAKNTVYLQKNSLKPEDTAVYYCNALYVSTSDFVYWGQGTQVTVSS	high polyreactivity
QVQLVESGGGLVQAGGSLRLSCAASGRIFEIYALGWYRQAPGKERELVAAISWRGVSTYYADSVKGRFTISRDNAKNTVYLQMKSLKPEDTAVYYCNKDVDYFWYVEYDYWGQGTQVTVSS	low polyreactivity
QVQLVESGGGLVQAGGSLRLSCAASGRIFQIYAMGWYRQAHGKERELVAAISSGGTTYYADSVKGRFTISRDNAKYTVYLLMNSLKPEDTAVYYCADASGYYRYDYWGQGTQVTVSS	high polyreactivity
QVHLVESGGGLVQAGGSLRLSFAASRSIFSKYVMGWYRQAPGKERELVASITSGGRTNYADSVKGRFTISRDNAKNTVYLQMNSLKPEDTAVYYCAARAFKTWYRSGVDYWGQGTQVTVSS	low polyreactivity
QVQLVESGGGLVQAGGSLRLSCAASGRTFNYYAMGWYRQAPGKEREFVAANSWSVGSTYYADSVKGRFTISRDNAKNTVYLQMNSLKPEDTAVYYCATEVPVGVQRHIFNYYYWGQGTPVTVSS	low polyreactivity
QVQLVESGGGLVQAGGSLRLSCASYGSIFSSYFMGWYRQAPGKERELVAAISSGGRTYYADSVKGRFTISRDNAKNTVYIQMKSLKPEDTAVFYCNRVRYRQSAFDYWGQGTQVTVSS	high polyreactivity
QVQLEESGGGLVQAGGSLRLSCAASGSIFRSYAMGWYRQAPGKEREFVAAINSRSGSTYYADSVKGRFTISRDNAKNTVYLQMNSLKPEDTAVYYCAAKFAQPDYRYDYWGQGTQVTVSS	high polyreactivity
QVQLVESGGGLVQAGGSLRLSCAASGTIFRLYTMGWYSQAPGKERELVAAITGSGDSTYYADSVKGRFTISRDNAKNTVYLQMNSLKPEDTAFYYFAAKLSRVKYGYWGQGTQVTVSS	high polyreactivity
QVQLVESGGGLVQAGGSLRLSCAASGSTLAQYAMGWYRQAPGKETELVADISWSGGSTYYADSVKGRFTISRDNAKNTVYLQMNSLKPDDTAVYYCNAYAFDSVREEDYWGQGTQGTVSS	low polyreactivity
QVQLVESGGGLVQAGGSLRLSSAASGSIFSRYAMGWYRQAPGKEREMVAALNGRGSRTYYADSVKGRFTISRDNSKNTVYLLMNSLKPEDTAVYYCAAESYTAWELDYWGQGTQVTVSS	high polyreactivity
QVQLQESGGGLVQAGGSLRLSCAASGDILEADDMGWYRQAPGKERELVASITDGGSTNCADSMKGRSTICRDNAKITVYVQMNRLKLEDTAVYYCAGIAYPDVPTYFDYDSDYFYWGQGTLVTVSS	high polyreactivity
QVQLVESGGGLVQAGGSLRLSCAASGSTFVVYAMGWYRQAPGKERELVARITLSDGSTNYADSVKGRFTISRDNAKNTVYLQMNSLKPEDTAVYYCAAEVVPFYYFWFDYWGQGTQVTVSS	low polyreactivity
QVQLVESGGGLVQAGGSLRLSCAASGSTFHFYAMGWYRQAPGKESELVAAITWSGGTTYYADSVKGRFTISRDNAKNTVYFQMNSLKPEDTGVYYCATGQSVIYRYEYWGQGTQVTVSS	low polyreactivity
QVQLVESGGGLVQAGGSLRLSCAASGGIFGSYTMGWYRQAPGKERELVAGISDSGGSTYYADSVKGRFTISRDNAKNIVYLQMNSLKPEDTAVYYCAAVEAYGQEYDYWGQGTQVTVSS	low polyreactivity
QVQLVESGGGLVQAGGSLRLSCAASGSIFRAYAMGWDRQAPGKERELVATISGSGGSRSYADSVKGRFTISRDNAKNTVDLQMNSLKPEDTAVYYCARDRYYKYTSYDYWGQGTQVTVSA	low polyreactivity
QLQLVESGGGLVQAGGSLRLSCAASGFTSDVYAKVSYRQAPGKERELVAEISARGGSTYYADSVKGRFTISRDNAKNTVYLQMNSLKPEDTAVYYCAAEVYVGTIGFYADFFYYPVYYWGQGTQVTVSS	low polyreactivity
QVQLVESGGGLVQAGGSLRLSCAASGNTFSISAMGWYRLAPGKERELVAAISLSGGSTYYADSVKGRFTISRDNAKNTVYLQMNSLKPEDTAVYYCAADVFTARRRYDYWGQGTQLTVSS	low polyreactivity
QVQLVESGGGLVQAGGSLRLSCAASGYTFKYYTMGWSRQAPGKERELVAAITGGGSTYYADSVKGRFTISRDNAKNTVYLQMNSLKPEDTAVYYCAATVLYGYHKAYDYWGQGTQVTVSS	high polyreactivity
QVQLVESGGGLVQAGGSLRLSCAASGLSSLRMLWDGRDRRLGKKGSWLPLITSGGDSTNYADSVKGRFTISRDNAKNTVYFQMNSLKPEDTAVYYCAADLDYPYGYLGQGTQVTVSS	low polyreactivity
LVQLVESGGGLVQAGGSLRLSCAASGFSFTSYTMGWYRQAPWKERELVAGISTNGGTTYYADSVKGRFTISRDNAKNTVYLQMNSLKPEDTAVYYCNAKRKYGRFPKKYYYWGQGTQVTVSS	high polyreactivity

Sequence	polyreactivity (PSR sort gate)
QVQLVESGGGLVQAGGSLRLSCAASGITFGTNAMGWYRQAPGKERELVAAISGGGGSTYYADSVKGRFTISRDNAKYTVYLQMTCLKPEDTAFYYCAARRFKRSSLSFYVGYYYWGQGTQVTVSS	high polyreactivity
QVQLVESGGGLVQAGGSLRLSCAASGIIFWHYAMGRYIQAPGKERELVADISRRGGSTYYADSVKGRFTISRDNAKNTVYLQMNSLKPVDTAVYYCAARYHPGGYDSWGQGTQVTVSS	low polyreactivity
QVQLVESGGGLVQAGGSLRLSCAASGRIFVSYAMGWYRQAPGKERELVAAINWNGDRTYYADSVKGRFTISRDNATNTVYLQMNSLKPEDTAVYYCNTDSILLPYDYWGQGTQVTVSS	low polyreactivity
QVQLVESGGGLVQAGGSLRLSCAASGITLYQYAMGWYRQAPGKERELVAAISWNGGTTYYADSVKGRFTISRDNAKNNVYLQMNSLKPEDTAVYYCAADGYPYGGPSYYYWGQGTQVTVSS	high polyreactivity
QVQLVESGGGLVQAGGSLRLSCAASDTPSSSMLMGWYRQAPGKERELVAAISGSDGTTYYADSVKVRFTISRDNAKNTVYLQMNSLKPEDTAVYYCAADDRVYSGYIKDDYWGQGTQVTVSS	low polyreactivity
QVQLVESGGGLVQAGGGLRLSSAASGTFKRNAVGWYRQAPGKERELVATITRTGSTTYADSVKGRFTISRDNAMNTVYLQMNSLKPEDTAVYYCAAGYPPEDPEDYWGQGTQVTVSS	low polyreactivity
QVQLVESGGGLVQAGASLRLSCAASGSTYVRNAMGWYRQAPGKERELVAAITSGGNTYADSVKGRFTISRDNAKNTVYLQMNSLKPEDTAVYYSAAANEFGDVWAQFDYWGQGTQVTVSS	low polyreactivity
QVQLVESGGGLVQAGGSLRLSCAASGRIFGAYTMGWYRQAPGKEREFVAAITQSGGSTYYADSVKGRFTISRDNAKNTVYLQMNSLKPEDTAVYYCAATRYVLVGWRYAVWYDYWGQGTQVTVSS	high polyreactivity
QVQLVESGGGLVQAGGSLRLSCGASGFFFEPNSMGWYRQATGKERELVAAISSGGSTYADSVKGRFTISRDNAKNPVYLQMNSLKPEDTAVYYCAARPNQSYYGLYYYWGQGTQVTVSS	low polyreactivity
QVQLEESGGGLVQAGGSLRLSCADSGRTFRFYTIGWYRQAPGKERELVASISWGGTSTYYADSVKGRFTISRDNANNTVYLQMISLKPEDTAVYSCAAPRWVEGFRFDYWGQGTQVTVSS	high polyreactivity
QDQLVESGGGLVQAGGSLRLSCAASGSTFYIYAMGWYRQAPGQERELVARISGSRGSTYYADSVKGRFTISRDNAKNTVYLQMNSLKPEDTAVYYCAADDIYNYYQYYAFPYYRYDYWGQGTQVTVSS	low polyreactivity
QVQLVESGGGLVQAGGSLRLSCAASGRIFFRYAMGWSRQAPGKEREFVATITWSGGRTHYADSVKGRFTISRDNAKNTVYLQMNSLKPEDTAVYYCAASYHRYAFDYWGQGTQVTGSS	high polyreactivity
QVQLVESGGGLVQAGGSLRLSCAASGSIFAYNAMGWYRQAPGKEREFVAVITRSDDSTYADSVNGRFTISRDNAKNTVSLQMNSLKPEDTAVYYCAALQFVIDGGYRGDYWGQGTQVTVSS	low polyreactivity
QGQLVESGGGLVQAGGSLRLSCAASGRTFNYYAMGWYREAPGKEWELGAAITNRGGSTYYADSVKGRFTISRDNAKNTVYLQMNSLKPEDTAVYYSAARGKYPSASGYTYSYGYWGQGTQVTVSS	high polyreactivity
QVQLVESGGGLVQAGGSLRLSCAASGSTFTLYAMGWYRQAPGKERELVASITASDGSTSYADSVKGRFTISRDNAKNTVYLQMNSLKPEDTAVYYCAARYRVRGISYYYWGQGTQVTVSS	low polyreactivity
QVQLVESGGGLVQAGGSLRLSCAASGSIFPRYAMGWYRQAPGKERELVAGITSGGITYYADSVKGRFTISRDNAKNTVYLQLNSLKPEDTAVYYCAAVYYLVPGNYWGQGTQVTVSS	high polyreactivity
QVQLVESGGGLVQAGGSLRLSCAASGSIFRFYAMGWYRQAPWKERELVAGITWSGASTYYADSVKGRFTISRDNAKNTVYLQMNSLKPEDNAVYYCAAKSLIVRYDSWGQGTQVTVSS	high polyreactivity
QVQLVETGGGIVQAGGSLRLSSAASGRIFASNAMGWYRQAPGKERELVAAIDQCGGSTYYADSVKGRFTISRDNAKNTVYLQMNSLKPEDTAVYYCAADYITAYPRLYNYWGQGTQVTVSS	low polyreactivity
QVQLVESGGGLVQAGGSLRLSCAASGSTFPKYAMGWYRQAPGKERELVASISVTTGSTYYADSVKGRFTISRDNAKNTVYLQMNSLKPEDTAVYYCAKRTYSRKFRGAYNYWGQGTQVTVSS	high polyreactivity
QVKHVESVGRLVQAGGSLRLSSASSGRIFRSYAMGCYRQAPGKESEYVAAISRSGGRTYYADSVKGRFTISRDNAKNTVYLQMNSLKPEDSAVYYCAVVDYHVHSSDYNYWGQGTQVTVSS	high polyreactivity
QVQLVESGGGLVQAGGSLRLSCAASGSTFQSYTMGWYRQAPGKERELVATITSTSSTSYADSVKGRFTISRDNAKNTVYLQMNSLKPEDTAVYYCNAEGLHWGQGTQVTVSS	low polyreactivity
